Measured values published in paper PMC6048692 (Chemical Science, 2018).

B1: DsRed fused to MoTag2 (natural protein)
chain: MRSSKNVIKEFMRFKVRMEGTVNGHEFEIEGEGEGRPYEGHNTVKLKVTKGGPLPFAWDILSPQFQYGSKVYVKHPADIPDYKKLSFPEGFKWERVMNFEDGGVVTVTQDSSLQDGCFIYKVKFIGVNFPSDGPVMQKKTMGWEASTERLYPRDGVLKGEIHKALKLKDGGHYLVEFKSIYMAKKPVQLPGYYYVDSKLDITSHNEDYTIVEQYERTEGRHHLFL
B2: p53 tetramerization domain (TD), p53 324-356, fused with MoTag2 (domain or fragment)
chain: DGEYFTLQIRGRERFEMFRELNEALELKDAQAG

Legend:
SEC = biological target: the molecule itself; assay: SEC
[1] = biological target: the molecule itself; assay: MoTag2 comet formation, MT plus end tracking

Protein	stoichiometry N (SEC)	stoichiometry N [1]
B1	4	
B2		4
